Test results as given in the domain aggregation screens of Martell et al. (2025).

Assay: soluble fraction after stress (log2 fold change); higher = more stays soluble; pooled small domains, quantitative proteomics
Conditions: stress: 50 degC
Summary of the method: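 Quantitative proteomics served as the high-throughput read-out for pooled custom libraries of small protein domains. Each was stressed at 50°C. Aggregation propensity is expressed as the base-two log fold change in soluble protein after stress. A higher value means a larger share of the protein remains in solution.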

| Sequence | soluble fraction (log2) |
| --- | --- |
| HMGLKQADFEELASRIFTVLEEKSMTPAEIVRKLNLEPDRISIVIQYLLDEGKLNIKDGFINNSA | -0.107 |
| HMPEPLTARETEVLRLLSGGYSNREIAAAMFLAEGTIKNHVSAVLLKLGVRDRTRAVLRGLELGLIQ | -1.81 |
| HMATYDIDALKVDLPSAKELAQFVYDKTDGLVSLDLIGKPKEEQYIVAKNALEGKKVPAEYLTGFNPY | 0.202 |
| HMQNSLKAFRVKRGLTTSALSRLTNGEFSTSRISNYETGVRALTIDAAKKLAPHLGASPAQLLNL | -0.357 |
| HMTFEAKKGYINADMSVNVRETASTSATVIITLNPNTEVKVVGEENDFYKIEYKEYKGYVAKRLISDSQVQ | -0.166 |
| HMKPEDIALLEEIRDLLKEKKSVIVNLEYVNKDVARRIVDFISGGVFALNGHIQKVSNSIFLVAPMN | 0.00619 |
| HMVEGVSLVEIYVDENSKYNGKLLSEIPKKENTLVIMIQRGEQVIIPHGNIRLESGDMLVVSKTEI | -0.649 |
| HMPPSVAETLKRLRRHKSLSLEELAQMSGVSRSMLSQIERDATNPTVATLWRITAALGVSIDEVLGV | -1.87 |
| HMDKIYVYTTRGQVIELPRGSTAIDFAYKIQTDIGNMIIAAIVNDKLVDANYVLHNKDRVKIVTS | -1.92 |
| HMDDATTQLADRLLDLRRKAGYSQEQLADLLGVSRQAISKWEGAQGRPEVDNVVKLAQIYRVSTDFILTGS | -0.552 |
| HMQDNLKKYMDKLSQRDAELIVYKYLWNMSEKEISEMFHIKQEQVHVYVGRAKKRLFKIIKKEME | -0.025 |
| HMNQIDEATAATITTLNFLNTNSEFKIPVGDTATRPGTPAIGMMRFNSENDKAEIYVADFDGDGNPGWINL | -0.189 |
| HMTFTQFAESHGVIIKSLKASDKIQRGPTVAHPKSDNGAWLWDGNRGGVMAWDGDGQWYWFK | -1.95 |
| HMSAPAMTLDSIRSLLNDRDPWVVTQTVEWLVGLGPQVKTILETLTLESSDAARQAQNALDRINVRNYP | -0.155 |
| HMGTGVEQGKQYRTLKRDFDGASGIKVNGDFYRLRTSDTGMTELPAGTEVTFERFDGTTAVVHT | -0.0841 |
| HMFSNATISGLKAGALVRVYNISGVAVSTLTADAEGKVSVDLNNLPKGVYILSTPSKSFKVLN | -0.54 |
| HMDPAFAQHHDRALSILHSRGYEVHDSDTDLHWARPVLEFEAYKGSLEYKIVMSYPDLNIIEERVD | -1.06 |
| HMSFISRMVVAVEDIALSTRPNSTPSGDKYVSKGTVLLMEKRENDWVEVRQPSSPLSGWAPKTSLLSV | -0.546 |
| HMDTLHGRILEEFSRKIVDGTWPPGFSLPKETELADQYGVSRMTMNKVLTRLASDGFVIRRKRSGTVVAQP | -1.21 |
| HMNLEQTIVLGKRLFNNALDTLGKKQRSIKNKQINKLLELLNFKNMNELYQSIGVGDKNPLLMAQMML | -0.458 |
| HMGTSIMIIIVKPETKKERVNDLIHWIESQNLRTHLSTGDYSTIIGVIGDTSKLDSELIRGLDIVENVKRV | -0.318 |
| HMHTTIIVASRDIAAGSVLTSHDLSSVAWVGGAVPKGSYTAADLAVGKTAFTAFQQGEPILESRLAS | -0.00332 |
| HMPGTAAQARQLKAWLKENGEKPGAALPALQKAQEIYGYVPREVQQLIADALHKPLTEIYGVSTFYSQFNL | -0.573 |
| HMDTTLFGLFQNVILTQEDYEELSRTIVEDLDGLIDRLSAYMTSTGKTYKNHKATLLSWYLQDEKKFK | -1.82 |
| HMQEERLTFDTLLGISGIGPRLALAVLSRFTPGSLAAAVDAGDTKAFSAVPGVGNRTASRIILELKGKL | -0.771 |
| HMTSSQRDSILEFLKTRKDHPTADVVYMNVRKSFPNISLGTVYRNLTLLSDIGQIAKIRVGDGVDHFDADT | -0.526 |
| HMSIDNALLTLIGKTGTAQTVLRPSGKVVIGDEVYDAVTAGEFIDKGSAIVVTRVEATQLYVEASEA | 0.0555 |
| HMSRSLLAALEKLRESHTGSLPASVLSSAQRRSLESFAQTTKSVQMRPSGRGVVFAIINPEVVDKHWRELS | -0.497 |

| Sequence | soluble fraction (log2) |
| --- | --- |
| HMYQPLRDVIFETLRKAIVSGDIKPGERLMEVSLANQMGVSRTPVREAIRRLEAEGLVTMTPRKGTHVAE | -0.399 |
| HMLQEFTLELATAVVQEFRDQPGALINALHKLQETFGYVDEAAMPVLARLFNLSRAEVHGVASFYHDFRRS | -1.49 |
| HMIEMGNRIRTLRKRRVGSQSEFAEKLDVSVVTISRIENGMTKIDAELLIKMSEVLQVPVNIILGM | -3.22 |
| HMDYLSEFITDKVVRADGYSIRKGELSNEFKQWFITNVGTKNPKPKEIHDYMDRKFGKNKNGIWKNVKIKL | -0.38 |
| HMQISDTSELEAVVQDILKANMDVVAKIKAGKTNSANFLMGQVMKLTKGRAKPDTVLQLILDAVKQ | -0.301 |
| HMAESLHVTAAALFEGRAMLGIDGSRRLLRVGETSPEGVKLVSATAREAVIEIDGRRQTLAPGRDT | 0.0658 |
| HMGRTITVGIAEDADIKDIAKMLEEKGLISDYRLFVVQELLSAQHDKIKPGIYDLSTDMKAEEMLEILAG | -0.541 |
| HMFKINQKVKLIAPLPYLKTSENMPMLRPPDLVAIDEIGEVLSLKSPETVEVRFRRGSFLIDIDKLEKVD | -0.219 |
| HMWGAYHDGQVVKFPKKVTVYVIDGQYKRPLANEFVLKFLNYKTSDIIIDKDGNLNNYKNGAVVEH | -2.69 |
| HMVTARMPDLFGLDEATAQRMVSNAGLTLKTEYAYSDQAEGYVFDQTPEANAEVRRGGTVTAMIS | 0.0381 |
| HMTVVPNIVNQPEAAGTNLLISSNLKPGNRAVQYSDTVKAGDIISQSPEPGAQATLGGKVDYVISQGPAPT | 0.165 |
| HMAVETYRVKKSDTMQTIADRFGLSVEELLEYNQAYKTRELRARDILIIPSRKERKKLQQQKAQAAAQVVQ | -0.253 |
| HMVENATPEEREALNDIAMEAMGMVKDGKPTSAREFVQSQNLDNDQKILLWSLLDAPTRSALKTAEK | -0.133 |
| HMQTTEDMEINAKVDEYLREMYLWNDEYKTLNLDHNKGYEDFFYDALGSMTTNTLDKKTYVGSDGKTYYNL | -0.248 |
| HMKVNIGDQVYNQMKDQIMSGVWVPGEKIPSENQLMEVFGVSRGTVRQAIQKLSAVGLLETRRGEGSYVGQ | -0.115 |
| HMGIIYGKNPVLEAISSGTTINKIYAQTSNKEIDSVIKEALKRKIIVVNTDKQKLDKMIDGKNSQGIIASI | 0.317 |
| HMYLNYQTIGKRIRLLRKQQHLTQMTLAEMVDKSPTYISLVENGQKGPSLETLIDVANALKVTMDVLLAEY | -4.39 |
| HMEKYNIIVDNEDNFRLDKIIALNMKDLSRTMIQEMINRGLVSVNGKITKASYKTKLNDQIEIMIED | -0.28 |
| HMTRLSSREAQVISLVRDGMTNQQIAERLELSPLTIKNHVQNILRKLDVSNRAQAVAKAVKARLI | -0.3 |
| HMSWDNELLERAHKIIELYPQKRSALGPLLYLAQEKDGFISDDSIVEISNLVDITEVQVKSVSSFYSMY | -0.268 |
| HMGVENDGYVLPRELKKGDTVLIADLGKEATVLSPVDRNGNVEVLAGAAKTRVKLKNLRLIE | 0.13 |
| HMRTVPEALLGRAYETAETAIVLEGLEAKRTDVFHPTIGNGTVIRLEPASGSQVSAGGVIEIFVSKGTETI | -0.305 |
| HMDTVEFPVQVNGKVRGKITVAADAGKDAIETAALADEKVLAFLDGATPKKVIVVPGKLVNLVVQPG | 0.435 |
| HMSPVPRIEIELTSSKEDGSWTWRAVGAREPRGSLDGALLAKPAAVGDVLRVETDQFLDGMTVTAILPPRD | -0.325 |
| HMSRRIEIELTSSRPDGSWTWRAAGAREPKGVLDGTLLSQGSKPGDVVKAEAEFDIDGITIVSITQ | -0.18 |
| HMIDFIGLEAKLLSTISGEKMGNAEVIVDGNVMNIYVKSLDTSEIKFRENVLIIKQSDDKNYYLVAKP | -0.453 |
| HMLPPVFLTIDANENVIVRKDGEPVQTLNKFELGAFARSQAENSAEQPVVLAADKSIKYEVVMEVI | 0.0698 |
